Drawing on patent US6090929, this text covers IC50 of inhibition of PKC activity toward peptide substrate …, Kd and kon for two molecules.

Test [1] has as its target recombinant fragment of RIIα (RII 1-45). Put plainly: SPR (IAsys), gravin 1526-1780 coupled to the cuvette, RIIα 1-45 at 25 to 150 nM.

B1: gravin fragment residues 265-556 (protein)
chain: KEEGEEKQEKEPSKSAESPTSPVTSETGSTFKKFFTQGWAGWRKKTSFRKPKEDEVEASEKKKEQEPEKVDTEEDGKAEVASEKLTASEQAHPQEPAESAHEPRLSAEYEKVELPSEEQVSGSQGPSEEKPAPLATEVFDEKIEVHQEEVVAEVHVSTVEERTEEQKTEVEETAGSVPAEELVGMDAEPQEAEPAKELVKLKETCVSGEDPTQGADLSPDEKVLSKPPEGVVSEVEMLSSQERMKVQGSPLKKLFTSTGLKKLSGKKQKGKRGGGDEESGEHTQVPADSPDS
Take B1: the IC50 of inhibition of PKC activity toward peptide substrate … with PKC βII worked out at 0.5 µM.

B2: gravin fragment residues 1526-1780 (protein)
chain: VAIEDLEPENGILELETKSSKLVQNIIQTAVDQFVRTEETATEMLTSELQTQAHVIKADSQDAGQETEKEGEEPQASAQDETPITSAKEESESTAVGQAHSDISKDMSEASEKTMTVEVEGSTVNDQQLEEVVLPSEEEGGGAGTKSVPEDDGHALLAERIEKSLVEPKEDEKGDDVDDPENQNSALADTDASGGLTKESPDTNGPKQKEKEDAQEVELQEGKVHSESDKAITPQAQEELQKQERESAKSELTES
For the molecule B2, in test [1], the dissociation constant (Kd) – broadly, the constant that tells how readily two partners part at equilibrium – was determined as 100 nM and the kon – broadly, the second-order rate constant of association – is 160000 M⁻¹ s⁻¹.
